Experiments:
[1] = biological target: HLA-B*5101 (human); assay: competition vs 125I-labeled standard peptide, purified HLA
[2] = biological target: HLA-B*5401 (human); assay: as above
[3] = biological target: HLA-B*0702 (human); assay: as above
[4] = biological target: HLA-B*3501 (human); assay: as above
[5] = biological target: HLA-B*5301 (human); assay: as above
[6] = biological target: T1, HLA-A*0301 (human); assay: inhibition of 125I-labelled probe peptide binding to purified HLA-A*0301, gel filtration; ratio to standard peptide 941.12 ([..], 11 nM)
T1 construct: also called HLA-A3

[7] = biological target: HLA-A*1101 (human); assay: inhibition of 125I-labelled probe peptide binding to purified HLA-A*1101, gel filtration; relative to standard peptide 940.06
[8] = biological target: HLA-A*3101 (human); assay: inhibition of 125I probe peptide binding to purified HLA
[9] = biological target: HLA-A*0301 (human); assay: as above
[10] = biological target: HLA-A*6801 (human); assay: as above

B1: Her2/neu.698.F1 (peptide)
peptide: FPLTPSGAM
notes: 9-mer analog of the HER2/neu peptide starting at position 698
- IC50 [1]: 71 nM
- IC50 [2]: 91 nM
- IC50 [3]: 2 nM
- IC50 [4]: 16 nM
- IC50 [5]: 1520 nM

B2: HER2/neu peptide, position 976, 10 amino acids (peptide)
peptide: FSRMARDPQR
- relative binding ratio (IC50 of standard peptide / IC50 of test peptide) [6]: -0.0002

B3: Her2/neu.801.I11 (peptide)
peptide: MPYGCLLDHVI
notes: 11-mer analog of the HER2/neu peptide starting at position 801
- IC50 [1]: 2.4 nM
- IC50 [2]: 7.7 nM
- IC50 [3]: 66 nM
- IC50 [4]: 4.2 nM
- IC50 [5]: 1.9 nM

B4: HER2/neu peptide, position 292, 10 amino acids (peptide)
peptide: GASCVTACPY
- relative binding ratio (IC50 of standard peptide / IC50 of test peptide) [6]: 0.0003

B5: HER2/neu A11 motif peptide, position 24, 9 amino acids (peptide)
peptide: QVCTGTDMK
notes: also called HER2/neu 24-32
- relative binding ratio [7]: 0.052 ratio (IC50 of standard peptide / IC50 of test peptide)

B6: HER2/neu peptide, position 832, 9 amino acids (peptide)
peptide: GMSYLEDVR
- relative binding ratio (IC50 of standard peptide / IC50 of test peptide) [6]: -0.0002

B7: HER2/neu peptide, position 704, 10 amino acids (peptide)
peptide: GAMPNQAQMR
- relative binding ratio (IC50 of standard peptide / IC50 of test peptide) [6]: -0.0002

B8: HER2/neu A11 motif peptide, position 601, 10 amino acids (peptide)
peptide: PSGVKPDLSY
notes: also called HER2/neu 601-610
- relative binding ratio [7]: 0.0003 ratio (IC50 of standard peptide / IC50 of test peptide)

B9: HER2/neu peptide, position 1188, 9 amino acids (peptide)
peptide: GGAVENPEY
- relative binding ratio (IC50 of standard peptide / IC50 of test peptide) [6]: 0.0003

B10: HER2/neu peptide, position 1213, 9 amino acids (peptide)
peptide: FSPAFDNLY
- relative binding ratio (IC50 of standard peptide / IC50 of test peptide) [6]: 0.0002

B11: Her2/neu.669 (AA 9) (peptide)
peptide: VVFGILIKR
notes: synthetic peptide; the 9-mer and the 10-mer carry the same source label Her2/neu.669
- IC50 [8]: 13 nM
- IC50 [9]: 100 nM
- IC50 [10]: 4 nM

B12: HER2/neu A11 motif peptide, position 745, 10 amino acids (peptide)
peptide: NVKIPVAIKV
notes: Built as this row prints it (length 10); also called HER2/neu 745-754
- relative binding ratio [7]: 0.0007 ratio (IC50 of standard peptide / IC50 of test peptide)

B13: Her2/neu.649.F1I9 (peptide)
peptide: FPLTSIISI
notes: 9-mer analog of the HER2/neu peptide starting at position 649
- IC50 [2]: 1.5 nM
- IC50 [3]: 212 nM
- IC50 [4]: 118 nM
- IC50 [5]: 28 nM

B14: Her2/neu.649.F1, 9-mer (peptide)
peptide: FPLTSIISA
notes: 9-mer analog of the HER2/neu peptide starting at position 649; same label as the 10-mer in r43
- IC50 [1]: 663 nM
- IC50 [2]: 1.4 nM
- IC50 [3]: 290 nM
- IC50 [4]: 21 nM
- IC50 [5]: 3000 nM

B15: Her2/neu.217 (peptide)
peptide: RTVCAGGCAR
notes: synthetic peptide
- IC50 [8]: 40 nM
- IC50 [9]: 1620 nM
- IC50 [10]: 320 nM

B16: HER2/neu A11 motif peptide, position 360, 9 amino acids (peptide)
peptide: NIQEFAGCK
- relative binding ratio [7]: 0.0036 ratio (IC50 of standard peptide / IC50 of test peptide)

B17: HER2/neu peptide, position 447, 10 amino acids (peptide)
peptide: GLGISWLGLR
- relative binding ratio (IC50 of standard peptide / IC50 of test peptide) [6]: 0.0037

B18: HER2/neu peptide, position 549, 10 amino acids (peptide)
peptide: GLPREYVNAR
- relative binding ratio (IC50 of standard peptide / IC50 of test peptide) [6]: 0.0002

B19: HER2/neu A11 motif peptide, position 360, 10 amino acids (peptide)
peptide: NIQEFAGCKK
notes: also called HER2/neu 360-369
- relative binding ratio [7]: 0.0056 ratio (IC50 of standard peptide / IC50 of test peptide)

B20: HER2/neu A11 motif peptide, position 95, 9 amino acids (peptide)
peptide: PLQRLRIVR
- relative binding ratio [7]: 0.0001 ratio (IC50 of standard peptide / IC50 of test peptide)

B21: Her2/neu.649.F1I11 (peptide)
peptide: FPLTSIISAVI
notes: 11-mer analog of the HER2/neu peptide starting at position 649
- IC50 [1]: 4.6 nM
- IC50 [2]: 2.2 nM
- IC50 [4]: 96 nM
- IC50 [5]: 66 nM

B22: Her2/neu.706.F1, 9-mer (peptide)
peptide: FPNQAQMRI
notes: 9-mer analog of the HER2/neu peptide starting at position 706; same label as the 10-mer in r51
- IC50 [2]: 4.5 nM
- IC50 [3]: 68 nM
- IC50 [4]: 108 nM
- IC50 [5]: 18 nM

B23: Her2/neu.760.F1, 9-mer (peptide)
peptide: FPKANKEIL
notes: 9-mer analog of the HER2/neu peptide starting at position 760; same label as the 8-mer in r52
- IC50 [1]: 190 nM
- IC50 [2]: 77 nM
- IC50 [3]: 6.7 nM
- IC50 [4]: 4500 nM

B24: HER2/neu peptide, position 508, 10 amino acids (peptide)
peptide: GLACHQLCAR
- relative binding ratio (IC50 of standard peptide / IC50 of test peptide) [6]: 0.011

B25: HER2/neu A11 motif peptide, position 1102, 10 amino acids (peptide)
peptide: PTHDPSPLQR
notes: also called HER2/neu 1102-1111
- relative binding ratio [7]: 0.0001 ratio (IC50 of standard peptide / IC50 of test peptide)

B26: HER2/neu peptide, position 776, 9 amino acids (peptide)
peptide: GVGSPYVSR
- relative binding ratio (IC50 of standard peptide / IC50 of test peptide) [6]: 0.001

B27: HER2/neu A11 motif peptide, position 996, 10 amino acids (peptide)
peptide: PASPLDSTFY
notes: also called HER2/neu 996-1005
- relative binding ratio [7]: 0.0001 ratio (IC50 of standard peptide / IC50 of test peptide)

Reference: patent US20040018971A1 (published 2004)
